Assay results as given in PMC4588886, “A link between magnesium-chelatase H subunit and sucrose nonfermenting 1 (SNF1)-related protein kinase SnRK2.6/OST1 in Arabidopsis guard cell signalling in response to abscisic acid” (Journal of Experimental Botany, 2015).

How the values were obtained:
[1] = molecular target: T1, GST-tagged C-terminal half of ABAR protein (aa 681-1381) (Arabidopsis thaliana, UniProt Q9FNB0 681-1381); test: SPR
T1 chain: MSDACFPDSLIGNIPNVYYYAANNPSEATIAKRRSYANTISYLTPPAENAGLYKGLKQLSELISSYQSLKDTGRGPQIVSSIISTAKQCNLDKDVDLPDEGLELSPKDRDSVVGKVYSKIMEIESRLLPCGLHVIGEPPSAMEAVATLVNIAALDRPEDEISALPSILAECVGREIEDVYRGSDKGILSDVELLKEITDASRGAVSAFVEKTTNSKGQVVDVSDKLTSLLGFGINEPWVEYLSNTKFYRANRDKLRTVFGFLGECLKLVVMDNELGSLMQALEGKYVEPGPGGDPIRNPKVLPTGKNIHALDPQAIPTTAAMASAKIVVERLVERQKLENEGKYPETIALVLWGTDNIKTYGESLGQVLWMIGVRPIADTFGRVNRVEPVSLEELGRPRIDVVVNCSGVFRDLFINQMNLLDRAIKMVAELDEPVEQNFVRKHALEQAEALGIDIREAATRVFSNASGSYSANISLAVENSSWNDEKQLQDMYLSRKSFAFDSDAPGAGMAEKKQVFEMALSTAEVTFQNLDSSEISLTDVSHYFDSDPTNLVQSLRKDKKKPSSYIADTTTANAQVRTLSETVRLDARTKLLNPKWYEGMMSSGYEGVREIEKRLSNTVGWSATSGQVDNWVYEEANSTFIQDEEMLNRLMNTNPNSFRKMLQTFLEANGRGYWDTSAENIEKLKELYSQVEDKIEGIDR

[2] = molecular target: T2, GST-tagged C-terminal half of ABAR protein (aa 681-1381) (Arabidopsis thaliana, UniProt Q9FNB0 681-1381); test: pull-down; GST-tagged ABAR (aa 681-1381, 1 ug) or GST alone added to E. coli lysate expressing His-tagged OST1; glutathione-sepharose 4B beads, 4 °C, 12 h; 10 mM Tris-HCl pH 7.5, 200 mM NaCl, 10% glycerol; blot with anti-His; details: one partner purified
T2 construct: Cloned into pGEX-4T-1; also called GST-ABAR; recombinant truncated ABAR protein; source: E. coli BL21(DE3), purified (Sepharose 4B)
T2 sequence (looked up): T1 chain

Kd [1]: ~71.4 nM
binding result [2]: binds
B1: His-tagged OST1 protein (recombinant, full-length ORF) (enzyme, Arabidopsis thaliana, UniProt Q940H6 1-362, looked up)
chain: MDRPAVSGPMDLPIMHDSDRYELVKDIGSGNFGVARLMRDKQSNELVAVKYIERGEKIDENVKREIINHRSLRHPNIVRFKEVILTPTHLAIVMEYASGGELFERICNAGRFSEDEARFFFQQLISGVSYCHAMQVCHRDLKLENTLLDGSPAPRLKICDFGYSKSSVLHSQPKSTVGTPAYIAPEVLLKKEYDGKVADVWSCGVTLYVMLVGAYPFEDPEEPKNFRKTIHRILNVQYAIPDYVHISPECRHLISRIFVADPAKRISIPEIRNHEWFLKNLPADLMNDNTMTTQFDESDQPGQSIEEIMQIIAEATVPPAGTQNLNHYLTGSLDIDDDMEEDLESDLDDLDIDSSGEIVYAM
notes: SNF1-related protein kinase SnRK2.6/OST1/SRK2E, Arabidopsis thaliana, At4g33950, full-length ORF; Cloned into pET-48b(+); also called recombinant OST1; SnRK2.6; source: E. coli BL21(DE3): in cell lysate (pull-down); purified (Ni-NTA agarose)
